Series [1] has as its target T1, FimT Lp (Legionella pneumophila, UniProt Q5ZVL2 38-162). Description: EMSA; 50 mM Tris-HCl pH 7.2, 50 mM NaCl; […]; ITC 30 C; MST 50-150 mM NaCl, 0.05% Tween-20, […]. The note with it: protein: recombinant; tags: His6-SUMO cleaved.
Series [2] concerns the target T1, FimT Lp. In words: ITC; 50 mM Tris-HCl pH 7.2, 50 mM NaCl; […]; ITC 30 C; MST 50-150 mM NaCl, 0.05% Tween-20, […]. The note with it: protein: recombinant; tags: His6-SUMO cleaved; blunt. For orientation: In ITC the heat of successive injections is recorded.
Series [3] has as its target T1, FimT Lp. In words: NMR titration; 50 mM NaCl; 50 mM Tris-HCl pH 7.2, 50 mM NaCl; […]; ITC 30 C; MST 50-150 mM NaCl, 0.05% Tween-20, […]. The note with it: protein: recombinant; tags: His6-SUMO cleaved; blunt.
The next series concerns the target FimT Pa (Pseudomonas aeruginosa PAO1, UniProt Q9HVN0 36-169). In words: EMSA; affinity same order of magnitude as FimT Lp; 50 mM Tris-HCl pH 7.2, 50 mM NaCl; […]; ITC 30 C; MST 50-150 mM NaCl, 0.05% Tween-20, […]. The note with it: protein: recombinant; tags: His6-SUMO cleaved; blunt. In general terms: Mobility shift assays separate free from complexed probe on a gel.

In the next series the target is FimT Xc (Xanthomonas campestris pv. campestris …, UniProt Q8P7X0 39-183). Described as above. The note with it: protein: recombinant; tags: His6-SUMO cleaved; blunt.
In the next series the target is PilA2 Lp (Legionella pneumophila, UniProt Q5ZU92 34-140). Description: EMSA; up to 100 uM protein; 50 mM Tris-HCl pH 7.2, 50 mM NaCl; […]; ITC 30 C; MST 50-150 mM NaCl, 0.05% Tween-20, […]. The note with it: protein: recombinant; tags: His6 cleaved (PreScission); blunt.
The next series deals with PilA1 Lp (Legionella pneumophila, UniProt Q5ZU93 35-142). The description is as above. The note with it: protein: recombinant; tags: His6 cleaved (PreScission); blunt.
Another series deals with FimU Lp (Legionella pneumophila, UniProt Q5ZXU9 96-235). The description is as above. The settings on record: protein: recombinant; tags: His6-SUMO cleaved; blunt.
Series [4] has as its target T1, FimT Lp. Description: EMSA; Kd stated as low uM range; 50 mM Tris-HCl pH 7.2, 50 mM NaCl; […]; ITC 30 C; MST 50-150 mM NaCl, 0.05% Tween-20, […]. The note with it: protein: recombinant; tags: His6-SUMO cleaved; blunt.
In series [5] the target is T1, FimT Lp. In words: ITC; 50 mM NaCl, 30 C; N 1.09; 50 mM Tris-HCl pH 7.2, 50 mM NaCl; […]; ITC 30 C; MST 50-150 mM NaCl, 0.05% Tween-20, […]. The note with it: protein: recombinant; tags: His6-SUMO cleaved.
The target in series [6] is T1, FimT Lp. In words: MST/TRIC; 50 mM NaCl; 50 mM Tris-HCl pH 7.2, 50 mM NaCl; […]; ITC 30 C; MST 50-150 mM NaCl, 0.05% Tween-20, […]. The settings on record: protein: recombinant; tags: His6-SUMO cleaved; label: 5'-FAM on one strand; blunt.

Take TTAAATAGGCTTGGCAGGGTTAGGGTAGGG (ssDNA) [30mer ssDNA]: the binding result in the series with FimT Lp [1] is “binds”.

B1: 12mer dsDNA (dsDNA)
DNA 1: GTTCGCAACGAA
DNA 2: TTCGTTGCGAAC
The Kd is the concentration at which binding is half-saturated. As to B1, the Kd with FimT Lp [2] is 2.8 ± 0.2 µM; with FimT Lp [3], around 8.1 µM.

B2: 30mer dsDNA (dsDNA)
DNA 1: TTAAATAGGCTTGGCAGGGTTAGGGTAGGG
DNA 2: CCCTACCCTAACCCTGCCAAGCCTATTTAA
On to B2, for which the binding result with FimT Pa was “binds”; with FimT Xc, “binds”; with PilA2 Lp, “no binding”; in the series with PilA1 Lp, “no binding”; with FimU Lp it was “no binding”; with FimT Lp [4], “binds”.

On to GTTCGCAACGAA (ssDNA) [12mer ssDNA], for which, in the series with FimT Lp [5], the Kd worked out at 7 ± 0.3 µM.

B3: FAM-12mer dsDNA (dsDNA)
DNA 1: GTTCGCAACGAA
DNA 2: TTCGTTGCGAAC
As for B3, the Kd with FimT Lp [6] is 6.3 ± 0.9 µM.
